For test [1], the target named is T1, GARS, endogenous in H929 multiple myeloma cells (human, UniProt P41250 37-739, limits assumed).
T1 construct: Native protein pulled down from H929 lysates; also called Glycyl-tRNA synthetase; GlyRS
T1 sequence: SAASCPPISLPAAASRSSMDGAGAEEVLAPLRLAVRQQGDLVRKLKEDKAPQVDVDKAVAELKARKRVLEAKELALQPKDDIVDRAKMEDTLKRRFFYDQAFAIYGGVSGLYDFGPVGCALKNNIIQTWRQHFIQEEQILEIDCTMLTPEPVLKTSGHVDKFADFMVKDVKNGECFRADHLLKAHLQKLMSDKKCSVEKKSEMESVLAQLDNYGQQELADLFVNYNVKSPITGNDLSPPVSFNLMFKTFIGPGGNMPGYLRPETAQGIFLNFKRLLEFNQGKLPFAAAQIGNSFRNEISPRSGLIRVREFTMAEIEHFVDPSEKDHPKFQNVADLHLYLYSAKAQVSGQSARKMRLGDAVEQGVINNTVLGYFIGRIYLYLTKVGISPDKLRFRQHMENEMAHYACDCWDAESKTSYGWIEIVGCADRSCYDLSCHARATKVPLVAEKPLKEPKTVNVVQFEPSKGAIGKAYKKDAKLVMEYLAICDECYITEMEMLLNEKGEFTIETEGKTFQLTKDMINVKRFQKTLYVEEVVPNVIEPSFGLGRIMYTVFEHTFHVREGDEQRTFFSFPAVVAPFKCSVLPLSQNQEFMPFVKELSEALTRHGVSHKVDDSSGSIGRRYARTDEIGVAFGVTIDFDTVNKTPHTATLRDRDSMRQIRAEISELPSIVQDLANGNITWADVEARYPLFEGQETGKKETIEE
The test is described as follows: flow cytometry, H929 + vehicle; None 513; surface target GARS putative. A general note: In flow cytometry, cells or beads pass a laser one at a time.

The target in test [2] is T2, CADM1-His (Acro Biosystems) (human, UniProt Q9BY67 45-374).
T2 construct: Bought; also called CADM1/IGSF4A; not shown: His tag of the bought protein
T2 sequence: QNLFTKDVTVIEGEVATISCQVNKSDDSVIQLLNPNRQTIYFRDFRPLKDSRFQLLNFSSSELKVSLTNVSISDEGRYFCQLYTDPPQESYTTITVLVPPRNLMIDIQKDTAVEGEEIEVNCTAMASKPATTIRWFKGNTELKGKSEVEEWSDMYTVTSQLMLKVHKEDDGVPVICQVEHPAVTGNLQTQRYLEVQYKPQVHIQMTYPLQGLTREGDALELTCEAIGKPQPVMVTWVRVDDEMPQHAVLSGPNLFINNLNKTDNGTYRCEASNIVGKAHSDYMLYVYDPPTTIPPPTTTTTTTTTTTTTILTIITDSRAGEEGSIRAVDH
The test can be described thus: ELISA on coated CADM1-His. As to the method:
(§1) Recombinant purified ECDs (50-150 ng) of each putative target protein were coated, incubated with 150 ng of the indicated primary antibody, and binding was detected using a peroxidase-conjugated anti-human Fab secondary antibody. Heatmap represents averages of technical triplicates. (8B) Target validation via siRNA knockdown. H929 cells were transfected with siRNA pools targeting the putative antibody targets ICAM1, CADM1, and PTPRG. Cells were then subjected to cognate IgG binding analysis via flow cytometry. (NT, non-targeting siRNA).
(§2) ELISA ELISA was conducted as described previously. Briefly, 50-150 ng of antigen was coated overnight in half-area 96-well plates at 4° C., blocked with 3% BSA at 37° C. for 1 h, and 150 ng of chimeric rabbit/human IgG1 was added, incubating for 2 h at 37° C. […] After incubating at 37° C. for 15 min-1 h (depending on intensity of controls), data were acquired using a SpectraMax M5 plate reader (Molecular Devices).
(In general: In an ELISA, binding on a coated surface is turned into a signal by an enzyme label.)

A further test addresses T3, ICAM1-Fc (R&D Systems) (human, UniProt P05362 28-480).
T3 construct: Bought; also called ICAM-1/CD54; not shown: Fc of the bought fusion protein
The test is described as follows: ELISA on coated ICAM1-Fc, 150 ng IgG1; None 0.060. Here is the method: as §1, §2

Test [3] has as its target T1, GARS, endogenous in H929 multiple …. The test can be described thus: flow cytometry, H929 + CADM1 siRNA; None 449; surface target GARS putative.
Test [4] shares this target. The test is described as follows: flow cytometry, H929 + CDH18 siRNA; None 443; surface target GARS putative.
Test [5] shares this target. The test is described as follows: flow cytometry, H929 + CADM1 siRNA; None 0.89; surface target GARS putative.
The target in the next test is T4, SLAMF7.
T4 construct: coated protein in the ELISA; also called SLAMF7-StrepTag
T4 chain: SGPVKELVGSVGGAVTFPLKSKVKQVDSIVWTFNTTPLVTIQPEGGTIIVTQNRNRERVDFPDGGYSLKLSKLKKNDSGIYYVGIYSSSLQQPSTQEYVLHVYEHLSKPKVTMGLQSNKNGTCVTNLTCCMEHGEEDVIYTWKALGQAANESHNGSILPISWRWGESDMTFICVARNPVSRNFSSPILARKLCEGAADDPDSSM
The test can be described thus: ELISA on coated SLAMF7-StrepTag, 150 ng IgG1; None 0.047. Here is the method:
as §1, §2

T3 sequence (P05362 28-480): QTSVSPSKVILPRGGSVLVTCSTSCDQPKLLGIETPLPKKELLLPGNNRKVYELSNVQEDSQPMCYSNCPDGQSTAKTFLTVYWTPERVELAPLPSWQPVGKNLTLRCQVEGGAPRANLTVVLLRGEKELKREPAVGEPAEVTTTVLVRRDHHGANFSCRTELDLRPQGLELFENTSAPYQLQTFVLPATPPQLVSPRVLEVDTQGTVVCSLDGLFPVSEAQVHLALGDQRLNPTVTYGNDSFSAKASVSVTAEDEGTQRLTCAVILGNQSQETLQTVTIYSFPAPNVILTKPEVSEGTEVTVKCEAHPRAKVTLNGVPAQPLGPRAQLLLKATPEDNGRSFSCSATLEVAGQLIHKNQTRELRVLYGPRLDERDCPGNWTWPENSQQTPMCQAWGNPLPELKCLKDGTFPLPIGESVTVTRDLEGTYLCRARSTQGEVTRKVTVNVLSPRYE

B1: HW-81 chimeric rabbit-human IgG1 LA/LA/PG (antibody, V domains shown)
VH: QKQLVESGGGLVTPGGTLTLTCTVSGFSLSSNGVSWVRQAPGKGLEYIGLIRSIGSTYYATWAKGRFTISKTSTTVDLKITSPTTEDTATYFCARGGYRNGFKLWGPGTLVTVSS
VL: QPVLTQSPSVSAALGASAKLTCTLSSAHKTYYIEWYQQQHPGKAPRYLMQLQSDGSYTKGTGVPDRFSGSSSGADRYLIISSVQAEDEADYICGVIDSAVYVFGGGTQLTVTG
notes: Fc-silenced (L234A/L235A/P329G) IgG1, lambda; Alexa Fluor 647-labeled in single-step flow cytometry; Cluster C-45
Turning to B1, the results for the “mAb binding (MFI)” value in test [1], in test [3] and in test [4] were 682000, 696000 and 193000, respectively. For the same molecule, the binding result in test [2] is on record as “no binding (tested: 150 ng IgG1 per well)”. The results for the “ELISA Absorbance (405 nm-570 nm)” value with ICAM1-Fc (R&D Systems) and with SLAMF7 were 0.051 and 0.054, respectively. The “Cells stained (%)” value in test [5] is 99.8%.

B2: HW-56 chimeric rabbit-human IgG1 LA/LA/PG (antibody, V domains shown)
VH: QSVKESEGGLFKPTDTLTLTCTASGFTVSTNAVTWVRQAPGNGLEYIGTIGRSGSAYFASWAKRRSTLTRDINLNTVTLKMTSLTAADTATYFCVRGSPGYRTAISIWGPGTLVTISS
VL: AVMTQTPSSTSAAVEGTVTINCQASQSISNRLSWFQQKPGQPPKLLIYQASTLASGVPSRFKGSGSGTEFTLTISGVQREDAATYYCLGSYSSSDASFGGGTKLEIKR
notes: Fc-silenced (L234A/L235A/P329G) IgG1, kappa; Alexa Fluor 647-labeled in single-step flow cytometry; Cluster C-45
Consider B2, for which the “mAb binding (MFI)” value in test [1] is 481000; in test [3] it was 547000; in test [4] it was 400000. In addition, in test [2], the binding result was “no binding (tested: 150 ng IgG1 per well)”. In addition, the “ELISA Absorbance (405 nm-570 nm)” value in the test with ICAM1-Fc (R&D Systems) and with SLAMF7 was 0.074 throughout. In test [5], the “Cells stained (%)” value turned out to be 99.6%.

B3: HW-16 chimeric rabbit-human IgG1 LA/LA/PG (antibody, V domains shown)
VH: QSLEESGGRLVTPGTPLTLTCTASGFSLSSYAMSWVRQAPGKGLEWIGTMPTGGGTYYASWAKGRFTISKTSTTVDLQITSPTTEDTATYFCAKHWNIWGPGTLVTISS
VL: DIVLTQTPSSTSTAVGDTVTINCRASQSIGRNLAWFQQKPGQPPKLLIYRASNLASGVPSRFKGSGSRTQFTLTISGVQREDAATYYCLGSYSSSDTAFGGGTELEILR
notes: as for B2
B3: the “mAb binding (MFI)” value in test [1] amounted to 61100; in test [3] it was 45900; in test [4], 174000. Also, the binding result in test [2] is “no binding (tested: 150 ng IgG1 per well)”. The “ELISA Absorbance (405 nm-570 nm)” value with ICAM1-Fc (R&D Systems) was found to be 0.055. Further, the “Cells stained (%)” value in test [5] amounted to 99%.
